Assay in all cases: EMSA
Holding throughout (settings): EMSA: 20 mM Tris-HCl pH 7.5, 25 mM NaCl, 2 mM beta-mercaptoethanol, 10% glycerol; 50 nM nucleosome or DNA; 15 min room temperature; 6% TBE-acrylamide gel, 0.2X …
(Mobility shift assays separate free from complexed probe on a gel.)

For data set [1], the target named is T1, Hop1 CBR loop 1+3 mutant N362A;H365A;K452A;R458A (Saccharomyces cerevisiae) (UniProt P20050).
T1 sequence: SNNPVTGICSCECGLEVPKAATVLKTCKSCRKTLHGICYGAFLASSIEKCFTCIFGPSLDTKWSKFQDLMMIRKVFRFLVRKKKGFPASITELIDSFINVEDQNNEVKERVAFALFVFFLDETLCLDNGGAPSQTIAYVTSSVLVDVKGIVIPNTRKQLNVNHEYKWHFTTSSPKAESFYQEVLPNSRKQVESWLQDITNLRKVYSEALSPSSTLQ

Data set [2] concerns the target T2, Hop1 CBR loop2 mutant R402A;K403A;K404A;K405A (Saccharomyces cerevisiae) (UniProt P20050).
T2 sequence: T1 sequence with A41N, A44H, R81A, K82A, K83A, K84A, A131K, A137R

The target of data set [3] is T3, Hop1 CBR loop2+3 mutant R402A;K403A;K404A;K405A;K452A;R458A (Saccharomyces cerevisiae) (UniProt P20050).
T3 sequence: T1 sequence with A41N, A44H, R81A, K82A, K83A, K84A

Data set [4] concerns the target T4, Hop1 CBR loop 1+2 mutant N362A;H365A;R402A;K403A;K404A;K405A (Saccharomyces cerevisiae) (UniProt P20050).
T4 sequence: T1 sequence with R81A, K82A, K83A, K84A, A131K, A137R

The target in data set [5] is T5, Hop1 CBR loop 1 mutant N362A;H365A (Saccharomyces cerevisiae) (UniProt P20050).
T5 sequence: T1 sequence with A131K, A137R

For data set [6], the target named is T6, Hop1 CBR loop 3 mutant K452A;R458A (Saccharomyces cerevisiae) (UniProt P20050).
T6 sequence: T1 sequence with A41N, A44H

The target in data set [7] is T7, Hop1 CBR loop 1+2+3 mutant N362A;H365A;R402A;K403A;K404A;K405A;K452A;R458A (Saccharomyces cerevisiae) (UniProt P20050).
T7 sequence: T1 sequence with R81A, K82A, K83A, K84A

Residue numbers refer to the chain shown, from its start.

Consider “TGGAGAATCCCGGTGCCGAGGCCGCTCAATTGGTCGTAGACAGCTCTAGCACCGCTTAAACGCACGTACGCGCTGTCCCCCGCGTTTTAACCGCCAAGGGGATTACTCCCTAGTCTCCAGGCACGTGTCAGATATATACATCCTGT (double strand) [Widom 601 mononucleosome (human histones)]”, for which the equilibrium dissociation constant (Kd) (commonly the concentration at which binding is half-saturated) in data set [1] was 13 µM; in data set [2], more than 50 µM; in data set [3], more than 50 µM; in data set [4], more than 50 µM; in data set [5] it was 2 µM; in data set [6] it was 50 µM. The same sequence yielded a dissociation constant (Kd) in data set [7] of more than 50 µM.

The record behind these values is publication PMC10907721.
